The record followed here is article doi:10.1101/2024.04.29.591687 (bioRxiv, 2024).

The test deals with T1, tGFP-tagged mCLDN5 (mouse, UniProt O54942 1-218).
T1 sequence: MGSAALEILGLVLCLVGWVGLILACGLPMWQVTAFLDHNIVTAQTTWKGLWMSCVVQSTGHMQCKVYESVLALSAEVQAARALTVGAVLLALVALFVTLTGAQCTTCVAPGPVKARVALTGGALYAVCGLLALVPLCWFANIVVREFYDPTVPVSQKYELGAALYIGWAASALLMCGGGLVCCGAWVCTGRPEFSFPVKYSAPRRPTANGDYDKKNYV
In words: MST.

The molecule ESVLALNAEVQAAR [f1-C5C2] had a Kd of 68.3 µM.
